Experimental data from PMC3570549, “HAMP Domain Conformers That Propagate Opposite Signals in Bacterial Chemoreceptors” (PLoS Biology, 2013).
Substitutions are numbered along the chain they refer to. Numbers in names are those of the source.

B1: Aer2 1–172 L44H (domain or fragment)
chain: MGLFNAHAVAQQRADRIATLLQSFADGQLDTAVGEAPAPGYERHYDSLRALQRQLREQRAELQQVESLEAGLAEMSRQHEAGWIDQTIPAERLEGRAARIAKGVNELVAAHIAVKMKVVSVVTAYGQGNFEPLMDRLPGKKAQITEAIDGVRERLRGAAEATSAQLATAAYN
notes: Aer2, soluble receptor of Pseudomonas aeruginosa, residues 1-172 (HAMP1, HAMP2, HAMP3); also called L44H HAMP1 mutant; source: purified as previously described for the WT protein [7], induction temperature reduced to 18°C
B2: H2C AS1 (Aer2 1–172 A81C, MTSSL spin-labeled) (domain or fragment)
chain: B1 chain with H44L, A81C
modifications: MTSSL spin label on the engineered Cys at 81
notes: Aer2, soluble receptor of Pseudomonas aeruginosa, residues 1-172; source: Aer2 1–172 mutant proteins purified as previously described for the WT protein [7]; spin-labeled with MTSSL
B3: H1C AS1 (Aer2 1–172 D26C, MTSSL spin-labeled) (domain or fragment)
chain: B1 chain with D26C, H44L
modifications: MTSSL spin label on the engineered Cys at 26
notes: as for B2
B4: Aer2 1–172 V33G (domain or fragment)
chain: B1 chain with V33G, H44L
notes: Aer2, soluble receptor of Pseudomonas aeruginosa, residues 1-172 (HAMP1, HAMP2, HAMP3); also called HR2 mutant of HAMP1; source: purified as previously described for the WT protein [7], induction temperature reduced to 18°C

What was measured:
[1] = molecular target: the molecule itself; assay: crystal structure; Aer2 1–172 mutant proteins; L44H by vapor diffusion, 1.5–1.7 M MgSO4, 0.1 M Tris pH 8.5, room temperature, space group P3(2)12; V33G in conditions and space group of the WT; molecular replacement
[2] = molecular target: the molecule itself; assay: pulsed dipolar ESR spectroscopy (PDS, double electron electron resonance); inter-subunit distances between MTSSL spin labels on one engineered Cys per subunit; 17.35 GHz; protein 25–50 µM

Protein | binding result [1] | binding result [2]
B1 | binds | –
B2 | – | binds
B3 | – | binds
B4 | binds | –
